Paper PMC4700671
Values joined by “and” are separate entries in the source; they are usually repeats but may differ in a detail not shown here. Equal values may be shown once.

Legend:
[1] = biological target: myristoylated MMTV MA (matrix protein of mouse mammary tumor virus), wild type, with C-terminal His-tag (mouse mammary tumor virus) (UniProt P10258); experiment: AUC; sedimentation velocity, protein at 0.5 mg/mL in 50 mM Na2HPO4, 300 mM NaCl, 2.5 mM TCEP, pH 6.0; 50,000 rpm, 4 °C; absorbance at 280 nm; c(s) continuous size distribution; monomer to dimer
[2] = biological target: myristoylated MMTV MA (matrix protein of mouse mammary tumor virus), wild type, with C-terminal His-tag (mouse mammary tumor virus) (UniProt P10258); experiment: AUC; sedimentation velocity, protein at 5.0 mg/mL in 50 mM Na2HPO4, 300 mM NaCl, 2.5 mM TCEP, pH 6.0; 50,000 rpm, 4 °C; absorbance at 250 nm; c(s) continuous size distribution; monomer to dimer (and tetramer)
[3] = biological target: myristoylated MMTV MA triple mutant L11N/F12N/V15N, with C-terminal His-tag (mouse mammary tumor virus) (UniProt P10258); experiment: AUC; sedimentation velocity, protein at 0.5 mg/mL in 50 mM Na2HPO4, 300 mM NaCl, 2.5 mM TCEP, pH 6.0; 50,000 rpm, 4 °C; absorbance at 280 nm; c(s) continuous size distribution; monomer to dimer
[4] = biological target: myristoylated MMTV MA triple mutant L11N/F12N/V15N, with C-terminal His-tag (mouse mammary tumor virus) (UniProt P10258); experiment: AUC; sedimentation velocity, protein at 5.0 mg/mL in 50 mM Na2HPO4, 300 mM NaCl, 2.5 mM TCEP, pH 6.0; 50,000 rpm, 4 °C; absorbance at 250 nm; c(s) continuous size distribution; monomer to dimer (and tetramer)
[5] = biological target: nonmyristoylated MMTV MA (matrix protein of mouse mammary tumor virus), wild type, with C-terminal His-tag (mouse mammary tumor virus) (UniProt P10258); experiment: as above

Substance: myristoylated MMTV MA (matrix protein of mouse mammary tumor virus), wild type, with C-terminal His-tag (from UniProt P10258 2-92) (domain or fragment)
- stoichiometry N [1]: 2
- percent dimer [2]: 98%
- percent tetramer [2]: 2%
- stoichiometry N [2]: 2 and 4

Substance: myristoylated MMTV MA triple mutant L11N/F12N/V15N, with C-terminal His-tag (from UniProt P10258 2-92) (domain or fragment)
- percent dimer [3]: 48%
- stoichiometry N [3]: 2
- stoichiometry N [4]: 2

Substance: nonmyristoylated MMTV MA (matrix protein of mouse mammary tumor virus), wild type, with C-terminal His-tag (from UniProt P10258 2-92) (domain or fragment)
- percent dimer [5]: 26%
- stoichiometry N [5]: 2
